Assay results from PMC9271601 (Structure (London, England : 1993), 2022).

Columns and labels:
[1] = molecular target: H3 (A/Texas/50/2012) HA probe (Influenza A virus A/Texas/50/2012 (H3N2), UniProt R4L1D1, strain, biotin (biotin protein ligase, AviTag)); assay: flow cytometry on cells
[2] = molecular target: H3N2 A/Victoria/361/2011 hemagglutinin trimer, wild type (Influenza A virus A/Victoria/361/2011 …, UniProt A0A097PF39, strain); assay: BLI

Row | Binder | binding result [1] | binding result [2]
1 | 1D12 B cell receptor on the donor's B cell (antibody, V domains shown) VH: QLVQSGAEVKKPGASVKVSCKASGYTFTGYYLHWVRQAPGQGLEWMGRINPDTGGTNYAQKFQGRVSMTRDMSISTHYMELSRLTSDDTAVYYCATKRGAVTAMVYYYFYGMDVWGQGTTVTVSS VL: DIVMTQSPLSLSVTPGEPASISCRSSHSLLHLNGYNYLDWYLQKPGQSPQLLIYLGSNRASGVPDRFSGSGSGTDFTLKISRVEAEDVGIYYCMQALRTPPGLTFGGGTKVDIK | binds | –
2 | 315–19-1D12 Fab (Fab, V domains shown) VH: QLVQSGAEVKKPGASVKVSCKASGYTFTGYYLHWVRQAPGQGLEWMGRINPDTGGTNYAQKFQGRVSMTRDMSISTHYMELSRLTSDDTAVYYCATKRGAVTAMVYYYFYGMDVWGQGTTVTVSS VL: DIVMTQSPLSLSVTPGEPASISCRSSHSLLHLNGYNYLDWYLQKPGQSPQLLIYLGSNRASGVPDRFSGSGSGTDFTLKISRVEAEDVGIYYCMQALRTPPGLTFGGGTKVDIK | – | binds
